Experimental data from US20220048967A1 (published 2022).
Numbered stars: 1 amine (or outer) side, 2 acyl side, 3 side chain; on linkers, the order of the positions; unused ones are H or OH. Square brackets hold non-standard residues; d marks the D form. Side chains are listed from the residue outwards. Ends that are not written are not given here. * marks the point of attachment. C20 diacid = O=C(O)CCCCCCCCCCCCCCCCCCC(=O)*; γGlu = O=C(O)[C@H](CCC(=O)[*:2])N[*:1]; AEEA = NCCOCCOCC(=O)O; Aib = CC(C)(N)C(=O)O

T1: human GIP receptor (human, UniProt P48546 22-466)
T1 sequence (looked up): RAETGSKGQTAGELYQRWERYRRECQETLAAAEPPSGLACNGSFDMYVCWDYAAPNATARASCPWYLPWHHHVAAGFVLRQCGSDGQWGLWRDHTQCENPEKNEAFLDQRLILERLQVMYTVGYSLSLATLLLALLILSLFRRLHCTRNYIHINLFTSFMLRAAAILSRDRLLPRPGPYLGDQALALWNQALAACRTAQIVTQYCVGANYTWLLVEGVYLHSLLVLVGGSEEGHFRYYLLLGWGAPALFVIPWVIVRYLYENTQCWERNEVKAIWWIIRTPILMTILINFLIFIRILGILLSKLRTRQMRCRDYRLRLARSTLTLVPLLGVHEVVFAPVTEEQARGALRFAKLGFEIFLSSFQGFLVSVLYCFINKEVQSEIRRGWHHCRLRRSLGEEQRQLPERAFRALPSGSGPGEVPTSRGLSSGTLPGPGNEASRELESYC

B1: Example 40 (peptide)
peptide: Y[Aib]EGTFTSDYSILLDKIAQ[Aib]AFIEYLIEGGK([AEEA-AEEA-γGlu-C20 diacid])SSGAPPPS-NH2
modifications: N-terminus assumed
SMILES: CC[C@H](C)[C@H](NC(=O)[C@H](CCCCN)NC(=O)[C@H](CC(=O)O)NC(=O)[C@H](CC(C)C)NC(=O)[C@H](CC(C)C)NC(=O)[C@@H](NC(=O)[C@H](CO)NC(=O)[C@H](Cc1ccc(O)cc1)NC(=O)[C@H](CC(=O)O)NC(=O)[C@H](CO)NC(=O)[C@@H](NC(=O)[C@H](Cc1ccccc1)NC(=O)[C@@H](NC(=O)CNC(=O)[C@H](CCC(=O)O)NC(=O)C(C)(C)NC(=O)[C@@H](N)Cc1ccc(O)cc1)[C@@H](C)O)[C@@H](C)O)[C@@H](C)CC)C(=O)N[C@@H](C)C(=O)N[C@@H](CCC(N)=O)C(=O)NC(C)(C)C(=O)N[C@@H](C)C(=O)N[C@@H](Cc1ccccc1)C(=O)N[C@H](C(=O)N[C@@H](CCC(=O)O)C(=O)N[C@@H](Cc1ccc(O)cc1)C(=O)N[C@@H](CC(C)C)C(=O)N[C@H](C(=O)N[C@@H](CCC(=O)O)C(=O)NCC(=O)NCC(=O)N[C@@H](CCCCNC(=O)COCCOCCNC(=O)COCCOCCNC(=O)CC[C@H](NC(=O)CCCCCCCCCCCCCCCCCCC(=O)O)C(=O)O)C(=O)N[C@@H](CO)C(=O)N[C@@H](CO)C(=O)NCC(=O)N[C@@H](C)C(=O)N1CCC[C@H]1C(=O)N1CCC[C@H]1C(=O)N1CCC[C@H]1C(=O)N[C@@H](CO)C(N)=O)[C@@H](C)CC)[C@@H](C)CC
B2: Example 41 (peptide)
peptide: Y[Aib]EGTFTSDYSILLDKIAQ[Aib]AFIEYLIEGGPK([AEEA-AEEA-γGlu-C20 diacid])SGAPPPS-NH2
modifications: N-terminus assumed
SMILES: CC[C@H](C)[C@H](NC(=O)[C@H](CCCCN)NC(=O)[C@H](CC(=O)O)NC(=O)[C@H](CC(C)C)NC(=O)[C@H](CC(C)C)NC(=O)[C@@H](NC(=O)[C@H](CO)NC(=O)[C@H](Cc1ccc(O)cc1)NC(=O)[C@H](CC(=O)O)NC(=O)[C@H](CO)NC(=O)[C@@H](NC(=O)[C@H](Cc1ccccc1)NC(=O)[C@@H](NC(=O)CNC(=O)[C@H](CCC(=O)O)NC(=O)C(C)(C)NC(=O)[C@@H](N)Cc1ccc(O)cc1)[C@@H](C)O)[C@@H](C)O)[C@@H](C)CC)C(=O)N[C@@H](C)C(=O)N[C@@H](CCC(N)=O)C(=O)NC(C)(C)C(=O)N[C@@H](C)C(=O)N[C@@H](Cc1ccccc1)C(=O)N[C@H](C(=O)N[C@@H](CCC(=O)O)C(=O)N[C@@H](Cc1ccc(O)cc1)C(=O)N[C@@H](CC(C)C)C(=O)N[C@H](C(=O)N[C@@H](CCC(=O)O)C(=O)NCC(=O)NCC(=O)N1CCC[C@H]1C(=O)N[C@@H](CCCCNC(=O)COCCOCCNC(=O)COCCOCCNC(=O)CC[C@H](NC(=O)CCCCCCCCCCCCCCCCCCC(=O)O)C(=O)O)C(=O)N[C@@H](CO)C(=O)NCC(=O)N[C@@H](C)C(=O)N1CCC[C@H]1C(=O)N1CCC[C@H]1C(=O)N1CCC[C@H]1C(=O)N[C@@H](CO)C(N)=O)[C@@H](C)CC)[C@@H](C)CC
B3: Example 42 (peptide)
peptide: Y[Aib]EGTFTSDYSILLDKIAQ[Aib]AFIEYLIEGGPSK([AEEA-AEEA-γGlu-C20 diacid])GAPPPS-NH2
modifications: N-terminus assumed
SMILES: CC[C@H](C)[C@H](NC(=O)[C@H](CCCCN)NC(=O)[C@H](CC(=O)O)NC(=O)[C@H](CC(C)C)NC(=O)[C@H](CC(C)C)NC(=O)[C@@H](NC(=O)[C@H](CO)NC(=O)[C@H](Cc1ccc(O)cc1)NC(=O)[C@H](CC(=O)O)NC(=O)[C@H](CO)NC(=O)[C@@H](NC(=O)[C@H](Cc1ccccc1)NC(=O)[C@@H](NC(=O)CNC(=O)[C@H](CCC(=O)O)NC(=O)C(C)(C)NC(=O)[C@@H](N)Cc1ccc(O)cc1)[C@@H](C)O)[C@@H](C)O)[C@@H](C)CC)C(=O)N[C@@H](C)C(=O)N[C@@H](CCC(N)=O)C(=O)NC(C)(C)C(=O)N[C@@H](C)C(=O)N[C@@H](Cc1ccccc1)C(=O)N[C@H](C(=O)N[C@@H](CCC(=O)O)C(=O)N[C@@H](Cc1ccc(O)cc1)C(=O)N[C@@H](CC(C)C)C(=O)N[C@H](C(=O)N[C@@H](CCC(=O)O)C(=O)NCC(=O)NCC(=O)N1CCC[C@H]1C(=O)N[C@@H](CO)C(=O)N[C@@H](CCCCNC(=O)COCCOCCNC(=O)COCCOCCNC(=O)CC[C@H](NC(=O)CCCCCCCCCCCCCCCCCCC(=O)O)C(=O)O)C(=O)NCC(=O)N[C@@H](C)C(=O)N1CCC[C@H]1C(=O)N1CCC[C@H]1C(=O)N1CCC[C@H]1C(=O)N[C@@H](CO)C(N)=O)[C@@H](C)CC)[C@@H](C)CC
B4: Example 43 (peptide)
peptide: Y[Aib]EGTFTSDYSILLDKIAQ[Aib]AFIEYLIEGGPSSK([AEEA-AEEA-γGlu-C20 diacid])APPPS-NH2
modifications: N-terminus assumed
SMILES: CC[C@H](C)[C@H](NC(=O)[C@H](CCCCN)NC(=O)[C@H](CC(=O)O)NC(=O)[C@H](CC(C)C)NC(=O)[C@H](CC(C)C)NC(=O)[C@@H](NC(=O)[C@H](CO)NC(=O)[C@H](Cc1ccc(O)cc1)NC(=O)[C@H](CC(=O)O)NC(=O)[C@H](CO)NC(=O)[C@@H](NC(=O)[C@H](Cc1ccccc1)NC(=O)[C@@H](NC(=O)CNC(=O)[C@H](CCC(=O)O)NC(=O)C(C)(C)NC(=O)[C@@H](N)Cc1ccc(O)cc1)[C@@H](C)O)[C@@H](C)O)[C@@H](C)CC)C(=O)N[C@@H](C)C(=O)N[C@@H](CCC(N)=O)C(=O)NC(C)(C)C(=O)N[C@@H](C)C(=O)N[C@@H](Cc1ccccc1)C(=O)N[C@H](C(=O)N[C@@H](CCC(=O)O)C(=O)N[C@@H](Cc1ccc(O)cc1)C(=O)N[C@@H](CC(C)C)C(=O)N[C@H](C(=O)N[C@@H](CCC(=O)O)C(=O)NCC(=O)NCC(=O)N1CCC[C@H]1C(=O)N[C@@H](CO)C(=O)N[C@@H](CO)C(=O)N[C@@H](CCCCNC(=O)COCCOCCNC(=O)COCCOCCNC(=O)CC[C@H](NC(=O)CCCCCCCCCCCCCCCCCCC(=O)O)C(=O)O)C(=O)N[C@@H](C)C(=O)N1CCC[C@H]1C(=O)N1CCC[C@H]1C(=O)N1CCC[C@H]1C(=O)N[C@@H](CO)C(N)=O)[C@@H](C)CC)[C@@H](C)CC

Biological target: T1, human GIP receptor
Test: cell-based or functional assay

Binder	hGIPR cAMP EC50 ratio	hGIPR cAMP Rel EC50 [nM]
B1	1.06	0.136
B2	0.637	0.229
B3	0.897	0.161
B4	1.28	0.112

Biological target: human GLP-1 receptor (human, UniProt P43220 24-463)
Test: cell-based or functional assay

Binder	hGLP1R cAMP EC50 ratio	hGLP1R cAMP Rel EC50 [nM]
B1	0.0801	0.746
B2	0.0637	0.96
B3	0.0471	1.45
B4	0.0777	0.862
